Measured values from the DeepSol protein solubility set.

Assay: soluble on expression in E. coli; label from the status in PepcDB or PDB records

| Sequence | soluble on expression in E. coli |
| --- | --- |
| MSKSTAEIRQAFLDFFHSKGHQVVASSSLVPHNDPTLLFTNAGMNQFKDVFLGLDKRNYSRATTSQRCVRAGGKHNDLENVGYTARHHTFFEMLGNFSFGDYFKHDAIQFAWELLTSEKWFALPKERLWVTVYESDDEAYEIWEKEVGIPRERIIRIGDNKGAPYASDNFWQMGDTGPCGPCTEIFYDHGDHIWGGPPGSPEEDGDRYIEIWNIVFMQFNRQADGTMEPLPKPSVDTGMGLERIAAVLQHVNSNYDIDLFRTLIQAVAKVTGATDLSNKSLRVIADHIRSCAFLIADGVMPSNENRGYVLRRIIRRAVRHGNMLGAKETFFYKLVGPLIDVMGSAGEDLKRQQAQVEQVLKTEEEQFARTLERGLALLDEELAKLSGDTLDGETAFRLYDTYGFPVDLTADVCRERNIKVDEAGFEAAMEEQRRRAREASGFGADYNAMIRVDSASEFKGYDHLELNGKVTALFVDGKAVDAINAGQEAVVVLDQTPFYAESGGQVGDKGELKGANFSFAVEDTQKYGQAIGHIGKLAAGSLKVGDAVQADIDEARRARIRLNHSATHLMHAALRQVLGTHVSQKGSLVNDKVLRFDFSHNEAMKPEEIRAVEDLVNAQIRRNLPIETNIMNLEAAKAKGAMALFGEKYDERVRVLSMGDFSTELCGGTHASRTGDIGLFRIISESGTAAGVRRIEAVTGEGAITTVHADSDRLSEVAHLLKGDSNNLADKVRSVLERTRQLEKELQQLKEQAAAQESANLSSKAIDVNGVKLLVSELSGVEPKMLRTMVDDLKNQLGSTIIVLATVAEGKVSLIAGVSKDVTDRVKAGELIGMVAQQVGGKGGGRPDMAQAGGTDAAALPAALASVKGWVSAKLQ | not soluble |
| MMMEIEDDEVPSPPSPHPAGTTIGGPNSKRYSDILSLDYCTFRIPYEELNIRFRNGQKDLDRAATGVAKAAELLQKKTAGSNEPVSRESLRRHFDLLIRQVQEARKTVERITQSEIEQLDKITTRADRIHEEFEVTRDSENPRNTEKLERQKFCRFIVWHMLRCGYIEPAKVLVKEMELEDLVDVDVFENMYAVQQALLDGNIQPCLAWCDRHHRKLRKLESRIELVARQQEAVTLIELGNIPEAVAYVKKYIAPIAKGKFTEDLKKTMGAIACTLEQSRLRNPELHAADRYQKCAALFIEEAHRIFEIHGNTALATLIQYGLATQKTPSCHNDEKTPLDKQKCIVCRPDVWPIAENLPYSHVANSRIFCSLSGKLCDDDKNIPFLFPSGHVIGSAAIERLKRDDNKLYDPIHKKLIDEEEALRLYFL | not soluble |
| MSLSQLVLILGDQLSPSIAALDGVDKKQDTIVLCEVMAEASYVGHHKKKIAFIFSAMRHFAEELRGEGYRVRYTRIDDADNAGSFTGEVKRAIDDLTPSRICVTEPGEWRVRSEMDGFAGAFGIQVDIRSDRRFLSSHGEFRNWAAGRKSLTMEYFYREMRRKTGLLMNGEQPVGGRWNFDAENRQPARPDLLRPKHPVFAPDKITKEVIDTVERLFPDNFGKLENFGFAEGHHHHHH | not soluble |
| MHEWALADAIVRTVLDYAQREGASRVKAVRVVLGELQDVAEDIVKFAMEQLFAGTIAEGAEIEFVEEEAVFKCRNCNYEWKLKEVKDKFDERIKEDIHFIPEVVHAFLACPKCGSHDFEVVKGRGVYVAGIKIEKEGGS | soluble |
| MAHHHHHHMHYTGVGIEDVKVRFNEKMRLSASLQRRKSEEVEWSLFWEALNKGDGKMISEALSGASVSGATQQIGMAEACAVLLKGAGKEWHTRIVDDLPFSTVTRCSLLHAALAEKRPDVAAEMLSHARVTRSDLSSLWPLMAKCTWEEVLRMISACPKNAVPYNQALPFILKQGCSLQTLSEHLEHARVLGDADVVAPLLAYAVEMEDWPYVERCVGHLVDIGKITPSAREAFGHLCKLHGPKRVCHRLMEHHVELSSMTIEDLESLRF | not soluble |
| MLIILLLTVLTVYLVYELYWKRRNFPPGPCPLPVFGNLLSIANPPPGYEAFERWTKKYGDIYTFWIGNTPHIMINTWDKIKETYIRDAETYTNKVRLPALDLFRGGEYGIIDSNGATWREHRRFALSTMRDFGLGKNLMQENILMEVQDVFARLDAKLGSETDIPEVFDHAVANVVNQLLFGYRFVGPKESEYQELKRIIEAPTDLFGKPHMFLAMNIPVIAKLMPEFMYEGPFKDFRDTAFAFFNKQIEAHRQEVDLNDLNSESTDFVETFLKEQKRRESEGDSETFSNVQLSNVCMDLWFAGLNTTTNTITWAISYILHHPEVQDKVHEEMDKVIGSDRLITTADKNDLPYFNAFINEAQRGINIVPLNLQHATTRDTVINGFKIPKGTGVVAQISTVMNNEEVFPDPHTFNPDRFIDEHGKLKRVEELAPFSVGKRSCPGEGLARMELFLFIANFLNRYKIYPSKEGPPSMDKSNGALIAPRLFSATLKRRS | not soluble |
| MKQQAIDEQLRNAIEYTPEMFTQVPMLYINIEINNYPVKAFVDTGAQTTIMSTRLAKKTGLSRMIDKRFIGEARGVGTGKIIGRIHQAQVKIETQYIPCSFTVLDTDIDVLIGLDMLKRHLACVDLKENVLRIAEVETSFLSEAEIPK | soluble |
| MGSFMTDIAVIINNRAKNAHRMEDYLSELRAHDIDYQLYKADPQQLEKNIQHCCSKYPLLLIGGGDGTVRSAAQWCSNTSVILGVLPLGTMNHFSKELNLPSTTEELIAAIVEKTTTTIDVAEVNGH | not soluble |
| MSLTDINLKGGKLSIEQLNTIFETIPVEFDFIDENDIIRWSSANRHRLFKRTDADLGKHVLEVHPGHSQNHVKQVLHDMHSGDRDSISIMIKHHGQPVNIAFYALRDDQNKYLGCVEVTQDVSKQQTKGSFWRNIMQVLHKKEGHHHHHH | soluble |
| MSLSTIREVAKLANVSIATVSRVLNNDTKYKMTEETKNRVLDAVTQLNYIPITTPRKKMTVTNSNICKDAKIGCILRVTKKGYNDPYYMSILAGVETQLREVGIELSFIKSAPILQDKSHLASTFSDSLDGLILMEPLNEDIYHYIKKRVPHVVGIDTLRDDIDDVGYDHLENGILATQHLIEKGHKEIGFIGGSGESQDIKDSKRYQGYVIAMHKAGLPIQKKWIIDCGWNEDECVAKVDALCKSNHYPTAFFAASDLMAMAAMKSFYTNGISVPKRVAVIGMSDIEMSQYSNPPLTTYHVPKEEIGRVATNLLLARIQGYETLPQKIILPTTFVERSSTEGHHHHHH | soluble |
| MLEPSHNDELPPIPGKRYFTIGEVSELCAVKPHVLRYWEQEFPQLNPVKRRGNRRYYQRLDVLMIRQIRGLLYDQGFTIGGARLRLTAGEPKDDTQQYKQMIREMIAELEDVLVMLKA | not soluble |
| MSNKNYVFEEAKESLSSILFNGDSDRTEAGFFDGSVESWNDEDMIDGAKWVDRLVSEMTKAINIDDMRRRVAVILEALESIIKKNTNASKKLEYASMKESLQSLINDNQILKRVIANQHQRSSENEEKAKQVLHLRGVVGQYQEQVHKLELSNYAMKLHLQRSQQQQTSFSGNLPPDIY | soluble |
| MGHHHHHHGGHMSLSAYKTVVVGTDGSDSSMRAVDRAAQIAGADAKLIIASAYLPQHEDARAADILKDESYKVTGTAPIYEILHDAKERAHNAGAKNVEERPIVGAPVDALVNLADEEKADLLVVGNVGLSTIAGRLLGSVPANVSRRAKVDVLIVHTTEGGS | soluble |
| SELRPSGDSGSSDVDAEISDGFSPLDTSHRDVADEGSLLRRAEMYQDYMKQVPIPTNRGSLIPFTSWVGLSISMKQLYGQPLHYLTNVLLQRWDQSRFGTDSEEQRLDSIIHPTKAEATIWLVEEIHRLTPSHLHMALLWRSDPMYHSFIDPIFPEK | soluble |
| KQGPTSVAYVEVNNNSMLNVGKYTLADGGGNAFDVAVIFAANINYDTGTKTAYLHFNENVQRVLDNAVTQIRPLQQQGIKVLLSVLGNHQGAGFANFPSQQAASAFAKQLSDAVAKYGLDGVDFNDEYAEYGNNGTAQPNDSSFVHLVTALRANMPDKIISLYNIGPAASRLSYGGVDVSDKFDYAWNPYYGTWQVPGIALPKAQLSPAAVEIGRTSRSTVADLARRTVDEGYGVYLTYNLDGGDRTADVSAFTRELYGSEAVRT | soluble |
| MAHHHHHHMFISEDLDPEALKNEANIKWKEVIGKGNMEEANIIWRQALKECIKYSMRGIPTNKNRDMQISLRLNLSLYHYKKKEYSDCINQCNIIIDNLLNLEEMLQYYNMGDEEENKKESNNNDGDKGDHISDDKGDHMSDDKGDHKDDDKGDHMSDDKGDHKDDDKGDHMSDDKGDHKDDDKGDHMSDDKDKSNVNLREKKYIIKKDILIKIFLRRASSFLCLQEFNKCNEDLGIIKKLENNDAEAATLEKRMIIEKKDYERKQKELYKKMCNSK | not soluble |
| MLDVPHGKFGFTKGCIIAVILLSLSRTLNRGQLNLERFEFWQPTSQLLALDVCLRDAFALEHHHHHH | not soluble |
| MTLRSQDPRIAIIGGGIAGATAAVHLGELGLNVVLMEKSAGLVSGPPICHLHAGGNLYREISEQQCIDLLEQSIETVRLYPHTLNVRPTLIAIPQSDPGQPEEILPRLVTIQNAYRKLVEQDAANQVLGAVDNYYRLYQREELERLAQQQQANPPQSDDEWVIPFAQHADLAQLKYPVVLVQEYGWSVFRLAASVDLTLEALPNCQVMLRTELVDATFQDNQWRLTYLDAQGERHTQTVDYLVNACGFETGRVDDMARHHRQRLVEFKAAYVTHWPACHQWWPEVIFHGPRGSEDGMAQLTPYADGTFQLHGMTESITLFADGLVASTPTSAQPQLPLYLQHKIERGWPMSAQQERTVRAIQHMSRFVPSFDNAEFAGKPLFGAQQIPGDDVTLRAADVSFEANQYARLEVVKGSSALRAARQLVAVWQLKPDAGELSIETEHPCSMAFTAQQVEQQAIRLCHARGYPAALAKVYGLLEHHHHHH | soluble |
| MSSTAAKKDVKSSAVPVTAVVEKKEFEEEEFEEFPVQEWAERAEGEEDDVNVWEDNWDDETHESEFSKQLKEELRKSGHQVA | not soluble |
| MSGATPVFTEINQIQGTGDKSPLISSGFISDDEYFVQGVVTARGESLLKGFYLQGLNDDFDPNSSEGIFVSTGSAPSLEIQPGALVCVKAKVQEYYGQTQLKPDTNNFLVQGHQAPVSVTELTINENETLAQALERHEGMQVKLTSHSDLRITRNFSFDYASKRNNMVLSHGEPLFKPTQLFAAESPEAIQLAEENAKRQITIESDNKAPNGEVPYFPDFATDSNQDGSADSYLRLGARIEGLEGVIAYSYGQYRLVTTNTISQENIITQAFDEDGLEHHHHHH | soluble |
| MSTCSDESCDKECPLCMETLELDDINFYPCKCEYQICRFCWHRIRTDENGLCPACRQPYPEDPVNFKPMTTDDVRKHKDEQRLKKQAEKLKLSDARQYLCNYRVLQKNLVYVVGLSPRVADPEILKKNEYFGRYGKIQKIVTSATPSLPAPHLPPSHTAYVTYKRVDDALRAIQGVHNSMLDGRLVKASLGTTKYCSSFLNSRKCFKPVGECMYLHENAEAEISFTKDDMHLGKHTEYEKRLIESMNSRPPPPQSTLASQLDKILAPTSNSPRRYLEDDSDTVDDVERTGSAIHMCADDPDDDDADSTNTSNSIDDPAPSNPADETVNSRRSNQTARERQWSERDEISVAPSNTPPTDPEGNENEFEEDIHRNDVSDLMSKLDVNDDRLARTSFSENDYLGIPAPAKHQEAPAPLMQWEALLGLSSPSAQSTIVEPSSLFPTFKMDSGFNSQSLFGTHTSSTPSFRREASPPPGLARFNSDDDLGFDPFTESSKGLSALLQEEQEQIPPHNSASNHTLDVLKQLFGQLPEQRQSTQQHPQHLQSSHQQHPLQQNQDQHHSFLHQLHAQQQHQQQQFAADMNRQQDYMYSRLMSQQQQQSQQQRQFDSTPGFSHPFGSMQQQQQSSQQQQHQSQSSQSSSLLQDLFNRQQQQHQAQQQAQQHQQQQMYAGINSYMYNDMLMPRVPFGMAPPPGLGGPSTNRSSTTQQAPPHMTQQSQQQQQQQQSSMGLFGMGGHQSMMQDHQSQQPQSAQDAFKALLPNVNVRFMDDNSMSRWSHENSLRSSAVPPPPGFSSVMNR | not soluble |
